Changes are numbered by the printed parent chain.
B1: VH2 + VL1 (antibody, V domains shown)
VH: QVQLVQSGAEVKKPGASVKVSCKASGYAFSNFWMNWVRQAPGQGLEWMGQIYPGDGDTNYNGKFKGRVTMTRDTSTSTVYMELSSLRSEDTAVYYCARSYYRSAWFAYWGQGTLVTVSS
VL: EIVLTQSPDFQSVTPKEKVTITCRASQSIGTSIHWYQQKPDQSPKLLIKYASESISGVPSRFSGSGSGTDFTLTINSLEAEDAATYYCQQSNNWPLTFGQGTKVEIK
notes: Humanized IgG expressed in HEK293; also called humanized antibody VH2+VL1
B2: VH1 + VL1 (antibody, V domains shown)
VH: B1 VH with A16S, M70I, R72A, T74K, V79A
VL: B1 VL
notes: Humanized IgG expressed in HEK293; also called humanized antibody VH1+VL1
B3: VH3 + VL1 (antibody, V domains shown)
VH: B1 VH with T76I, V79A, S85R, E89D
VL: B1 VL
notes: Humanized IgG expressed in HEK293; also called humanized antibody VH3+VL1
B4: VH5 + VL3 (antibody, V domains shown)
VH: EVQLVQSGAEVKKPGESLKISCKGSGYAFSNFWMNWVRQMPGKGLEWMGQIYPGDGDTNYNGKFKGQVTISADKSISTAYLQWSSLKASDTAMYYCARSYYRSAWFAYWGQGTLVTVSL
VL: EIVLTQSPATLSLSPGERATLSCRASQSIGTSIHWYQQKPGQAPRLLIYYASESISGIPARFSGSGSGTDFTLTISSLEPEDFAVYYCQQSNNWPLTFGGGTKVEIK
notes: Humanized IgG expressed in HEK293; also called humanized antibody VH5+VL3
B5: VH5 + VL4 (antibody, V domains shown)
VH: B4 VH
VL: AIQLTQSPSSLSASVGDRVTITCRASQSIGTSIHWYQQKPGKAPKLLIYYASESISGVPSRFSGSGSGTDFTLTISSLQPEDFATYYCQQSNNWPLTFGGGTKVEIK
notes: Humanized IgG expressed in HEK293; also called humanized antibody VH5+VL4
B6: VH1 + VL5 (antibody, V domains shown)
VH: B1 VH with A16S, M70I, R72A, T74K, V79A
VL: B5 VL with A1D, Q3V, L4M, S10L, V15T, T22S, K45E, S77C, P80S, G100Q
notes: Humanized IgG expressed in HEK293; also called humanized antibody VH1+VL5
B7: VH3 + VL5 (antibody, V domains shown)
VH: B1 VH with T76I, V79A, S85R, E89D
VL: B5 VL with A1D, Q3V, L4M, S10L, V15T, T22S, K45E, S77C, P80S, G100Q
notes: Humanized IgG expressed in HEK293; also called humanized antibody VH3+VL5
B8: VH4 + VL5 (antibody, V domains shown)
VH: B1 VH with S17T, V20I, A24V, R38Q, Q43K, M70I, R72A, S77D, V79A, S119R
VL: B5 VL with A1D, Q3V, L4M, S10L, V15T, T22S, K45E, S77C, P80S, G100Q
notes: Humanized IgG expressed in HEK293; also called humanized antibody VH4+VL5
B9: VH4 + VL4 (antibody, V domains shown)
VH: B1 VH with S17T, V20I, A24V, R38Q, Q43K, M70I, R72A, S77D, V79A, S119R
VL: B5 VL
notes: Humanized IgG expressed in HEK293; also called humanized antibody VH4+VL4
B10: VH2 + VL5 (antibody, V domains shown)
VH: B1 VH
VL: B5 VL with A1D, Q3V, L4M, S10L, V15T, T22S, K45E, S77C, P80S, G100Q
notes: Humanized IgG expressed in HEK293; also called humanized antibody VH2+VL5
B11: VH4 + VL2 (antibody, V domains shown)
VH: B1 VH with S17T, V20I, A24V, R38Q, Q43K, M70I, R72A, S77D, V79A, S119R
VL: B4 VL with L4M, L13V, D70E, E79Q, P80S
notes: Humanized IgG expressed in HEK293; also called humanized antibody VH4+VL2
B12: VH2 + VL2 (antibody, V domains shown)
VH: B1 VH
VL: B4 VL with L4M, L13V, D70E, E79Q, P80S
notes: Humanized IgG expressed in HEK293; also called humanized antibody VH2+VL2
B13: VH1 + VL2 (antibody, V domains shown)
VH: B1 VH with A16S, M70I, R72A, T74K, V79A
VL: B4 VL with L4M, L13V, D70E, E79Q, P80S
notes: Humanized IgG expressed in HEK293; also called humanized antibody VH1+VL2
B14: VH4 + VL3 (antibody, V domains shown)
VH: B1 VH with S17T, V20I, A24V, R38Q, Q43K, M70I, R72A, S77D, V79A, S119R
VL: B4 VL
notes: Humanized IgG expressed in HEK293; also called humanized antibody VH4+VL3
B15: VH3 + VL2 (antibody, V domains shown)
VH: B1 VH with T76I, V79A, S85R, E89D
VL: B4 VL with L4M, L13V, D70E, E79Q, P80S
notes: Humanized IgG expressed in HEK293; also called humanized antibody VH3+VL2
B16: VH5 + VL2 (antibody, V domains shown)
VH: B4 VH
VL: B4 VL with L4M, L13V, D70E, E79Q, P80S
notes: Humanized IgG expressed in HEK293; also called humanized antibody VH5+VL2
B17: VH5 + VL5 (antibody, V domains shown)
VH: B4 VH
VL: B5 VL with A1D, Q3V, L4M, S10L, V15T, T22S, K45E, S77C, P80S, G100Q
notes: Humanized IgG expressed in HEK293; also called humanized antibody VH5+VL5
B18: VH1 + VL3 (antibody, V domains shown)
VH: B1 VH with A16S, M70I, R72A, T74K, V79A
VL: B4 VL
notes: Humanized IgG expressed in HEK293; also called humanized antibody VH1+VL3

Target: T1, MUC1 on HCT116/MUC1 cells (UniProt P15941 24-1255, limits assumed)
T1 construct: whole, on cells; also called MUC1 overexpressed cell line
Experiment: FACS titration on HCT116/MUC1 cells
Procedure: (§1) To assess cell binding, 2×10⁵ HCT116/MUC1 cells per well were washed with PBS twice and incubated in 200 μl of serial dilutions of chimeric or humanized antibodies for 1 hour at room temperature. After washing 3 times with PBS, secondary antibody (2 μg/ml Alexa Flour®488 goat anti-human IgG) was added to cells and incubated for 30 minutes at room temperature. After washing with PBS, cells were analyzed by using FACSCalibur (BD Bioscience, San Jose, Calif.) and Flowjo software.

T1 sequence (P15941 24-1255 limits assumed): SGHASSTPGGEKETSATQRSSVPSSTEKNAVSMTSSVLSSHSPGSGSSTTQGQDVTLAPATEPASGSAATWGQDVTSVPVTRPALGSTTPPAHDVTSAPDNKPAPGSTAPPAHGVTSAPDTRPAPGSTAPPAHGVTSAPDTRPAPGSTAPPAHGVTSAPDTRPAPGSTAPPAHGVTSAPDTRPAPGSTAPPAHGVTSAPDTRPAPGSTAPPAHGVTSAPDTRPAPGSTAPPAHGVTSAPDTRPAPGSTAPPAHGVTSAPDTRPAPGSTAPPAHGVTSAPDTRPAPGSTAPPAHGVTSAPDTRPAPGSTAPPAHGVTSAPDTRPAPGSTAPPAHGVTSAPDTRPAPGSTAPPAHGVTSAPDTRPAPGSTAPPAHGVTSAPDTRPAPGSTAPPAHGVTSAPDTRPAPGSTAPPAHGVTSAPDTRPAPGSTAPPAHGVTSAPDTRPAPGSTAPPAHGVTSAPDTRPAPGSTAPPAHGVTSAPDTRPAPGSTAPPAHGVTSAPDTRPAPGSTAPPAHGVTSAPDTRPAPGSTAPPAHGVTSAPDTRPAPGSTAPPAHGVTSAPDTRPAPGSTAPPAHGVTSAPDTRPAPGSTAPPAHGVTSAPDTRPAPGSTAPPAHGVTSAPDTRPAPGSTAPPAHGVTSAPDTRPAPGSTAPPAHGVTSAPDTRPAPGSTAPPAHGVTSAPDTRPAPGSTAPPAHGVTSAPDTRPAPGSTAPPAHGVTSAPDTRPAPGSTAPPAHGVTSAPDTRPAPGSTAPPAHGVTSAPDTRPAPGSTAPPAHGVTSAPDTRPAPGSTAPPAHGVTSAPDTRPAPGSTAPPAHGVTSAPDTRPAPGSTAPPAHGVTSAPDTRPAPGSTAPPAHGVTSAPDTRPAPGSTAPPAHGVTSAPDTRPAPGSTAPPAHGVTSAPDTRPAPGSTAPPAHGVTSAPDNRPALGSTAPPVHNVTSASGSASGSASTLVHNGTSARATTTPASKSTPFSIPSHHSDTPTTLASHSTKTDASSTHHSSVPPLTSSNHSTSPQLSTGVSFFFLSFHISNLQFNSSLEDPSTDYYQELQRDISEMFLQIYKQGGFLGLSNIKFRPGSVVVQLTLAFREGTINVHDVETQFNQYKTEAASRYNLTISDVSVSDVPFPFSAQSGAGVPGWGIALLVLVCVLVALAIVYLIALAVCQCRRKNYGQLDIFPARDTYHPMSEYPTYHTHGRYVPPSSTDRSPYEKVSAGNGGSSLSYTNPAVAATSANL

Row | Binder | EC50
1 | B1 | 58.6 nM
2 | B2 | 30.3 nM
3 | B3 | 28.7 nM
4 | B4 | 21.9 nM
5 | B5 | 20.6 nM

Target: T1, MUC1 on HCT116/MUC1 cells
Experiment: FACS titration, HCT116/MUC1 cells, antibody at 125 nM
Procedure: as §1

Row | Binder | geometric mean
6 | B1 | 306
7 | B2 | 332
8 | B3 | 305
9 | B4 | 126
10 | B5 | 202

Target: T1, MUC1 on HCT116/MUC1 cells
Experiment: FACS titration, HCT116/MUC1 cells, antibody at 250 nM
Procedure: as §1

Row | Binder | geometric mean
11 | B1 | 337
12 | B2 | 363
13 | B3 | 321
14 | B4 | 167
15 | B5 | 193

Target: T1, MUC1 on HCT116/MUC1 cells
Experiment: FACS titration, HCT116/MUC1 cells, antibody at 500 nM
Procedure: as §1

Row | Binder | geometric mean
16 | B1 | 342
17 | B2 | 351
18 | B3 | 334
19 | B4 | 170
20 | B5 | 199

Target: T1, MUC1 on HCT116/MUC1 cells
Experiment: FACS titration, HCT116/MUC1 cells, antibody at 62.5 nM
Procedure: as §1

Row | Binder | geometric mean
21 | B1 | 265
22 | B2 | 290
23 | B3 | 263
24 | B4 | 141
25 | B5 | 190

Target: T2, MUC1-SEA-His protein (UniProt P15941 1039-1148, limits assumed)
T2 construct: domain: SEA; Recombinant antigen used for ELISA coating and as Biacore analyte; also called MUC-SEA-His; antigen protein; not shown: His tag
T2 sequence (looked up): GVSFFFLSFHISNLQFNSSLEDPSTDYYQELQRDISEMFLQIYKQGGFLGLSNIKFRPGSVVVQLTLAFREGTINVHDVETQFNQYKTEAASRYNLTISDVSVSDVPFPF
Experiment: SPR Biacore T200, antibody captured, antigen as analyte
Procedure: Antibody affinity was determined using a Surface Plasmon Resonance (SPR) biosensor, Biacore T200 (GE Healthcare). Antibody was immobilized on the sensor chip through Fc capture method. Antigen protein was used as the analyte. The data of dissociation (kd) and association (ka) rate constants were obtained using Biacore T200 evaluation software. The apparent equilibrium dissociation constants (KD) were calculated from the ratio of kd over ka. For affinity ranking, twenty-five humanized antibodies plus chimericantibody were injected and captured on sensor chip individually. The antibodies were ranked based on their dissociation rates (kd).

Row | Binder | koff
26 | B1 | 0.00133 s⁻¹
27 | B6 | 0.0302 s⁻¹
28 | B7 | 0.023 s⁻¹
29 | B8 | 0.0578 s⁻¹
30 | B9 | 0.0243 s⁻¹
31 | B2 | 0.0021 s⁻¹
32 | B10 | 0.0193 s⁻¹
33 | B3 | 0.0015 s⁻¹
34 | B4 | 0.0164 s⁻¹
35 | B5 | 0.0179 s⁻¹
36 | B11 | 0.0315 s⁻¹
37 | B12 | 0.0166 s⁻¹
38 | B13 | 0.0294 s⁻¹
39 | B14 | 0.0237 s⁻¹
40 | B15 | 0.0195 s⁻¹
41 | B16 | 0.0228 s⁻¹
42 | B17 | 0.0207 s⁻¹
43 | B18 | 0.0225 s⁻¹

Target: T1, MUC1 on HCT116/MUC1 cells
Experiment: FACS titration, HCT116/MUC1 cells, antibody at 0.244 nM
Procedure: as §1

Row | Binder | geometric mean
44 | B1 | 3
45 | B2 | 2.72
46 | B3 | 3.1
47 | B4 | 2.82
48 | B5 | 2.84

Target: T1, MUC1 on HCT116/MUC1 cells
Experiment: FACS titration, HCT116/MUC1 cells, antibody at 0.488 nM
Procedure: as §1

Row | Binder | geometric mean
49 | B1 | 3.27
50 | B2 | 3
51 | B3 | 3.81
52 | B4 | 3.27
53 | B5 | 3.52

Target: T1, MUC1 on HCT116/MUC1 cells
Experiment: FACS titration, HCT116/MUC1 cells, antibody at 0.977 nM
Procedure: as §1

Row | Binder | geometric mean
54 | B1 | 3.68
55 | B2 | 3.17
56 | B3 | 6.94
57 | B4 | 4.13
58 | B5 | 4.01

Target: T1, MUC1 on HCT116/MUC1 cells
Experiment: FACS titration, HCT116/MUC1 cells, antibody at 1.953 nM
Procedure: as §1

Row | Binder | geometric mean
59 | B1 | 4.38
60 | B2 | 5.68
61 | B3 | 11.4
62 | B4 | 8.05
63 | B5 | 5.71

Target: T1, MUC1 on HCT116/MUC1 cells
Experiment: FACS titration, HCT116/MUC1 cells, antibody at 3.906 nM
Procedure: as §1

Row | Binder | geometric mean
64 | B1 | 5.23
65 | B2 | 9.54
66 | B3 | 16.3
67 | B4 | 15.5
68 | B5 | 15.3

Target: T1, MUC1 on HCT116/MUC1 cells
Experiment: FACS titration, HCT116/MUC1 cells, antibody at 31.25 nM
Procedure: as §1

Row | Binder | geometric mean
69 | B1 | 126
70 | B2 | 185
71 | B3 | 192
72 | B4 | 110
73 | B5 | 152

Target: T1, MUC1 on HCT116/MUC1 cells
Experiment: FACS titration, HCT116/MUC1 cells, antibody at 7.812 nM
Procedure: as §1

Row | Binder | geometric mean
74 | B1 | 6.37
75 | B2 | 23.1
76 | B3 | 36
77 | B4 | 31
78 | B5 | 28.6

Target: T1, MUC1 on HCT116/MUC1 cells
Experiment: FACS titration, HCT116/MUC1 cells, antibody at 15.625 nM
Procedure: as §1

Row | Binder | geometric mean
79 | B1 | 29
80 | B2 | 68.7
81 | B3 | 71.3
82 | B4 | 61.5
83 | B5 | 67.1

From US20180036441A1 (Dana-Farber, published 2018)
